Data on 22 molecules can be found in patent US20210002644, “ANTI-CHYMASE APTAMER AND USE FOR SAME” (RIBOMIC INC., published 2021).

To fix the notation:
B1: SEQ ID NO: 17(11) (mixed)
RNA: GAUGAUCGGACAUAACAUUGUUGGGGUGUCAA
modifications: idT-G(M)A(M)U(F)G(M)A(M)U(F)C(F)G(M)G(M)A(M)C(F)A(M)U(F)AAC(F)A(M)TTG(M)U(F)U(M)G(M)GG(M)G(M)TG(M)TCA(M)A(M)-idT (F=2'-F, M=2'-OMe)
B2: SEQ ID NO: 17(6) (mixed)
RNA: B1 RNA
modifications: idT-G(M)A(M)U(F)G(M)A(M)U(F)C(F)G(M)G(M)A(M)C(F)A(M)U(F)AAC(F)A(M)TTG(M)U(F)U(F)G(M)GG(M)G(M)TG(M)TCA(M)A(M)-idT (F=2'-F, M=2'-OMe)
B3: SEQ ID NO: 17(5) (mixed)
RNA: B1 RNA
modifications: idT-G(M)A(M)U(F)G(M)A(M)U(F)C(F)G(M)G(M)A(M)C(F)A(M)U(F)AAC(F)ATTG(M)U(F)U(F)G(M)GG(M)G(M)TG(M)TCA(M)A(M)-idT (F=2'-F, M=2'-OMe)
B4: SEQ ID NO: 17(4) (mixed)
RNA: B1 RNA
modifications: idT-G(M)A(M)U(F)G(M)A(M)U(F)C(F)G(M)G(M)A(M)C(F)A(M)U(F)AAC(F)ATTG(M)U(F)U(F)G(M)GG(M)G(M)U(F)G(M)U(F)C(F)A(M)A(M)-idT (F=2'-F, M=2'-OMe)
B5: SEQ ID NO: 17(21) (mixed)
RNA: B1 RNA
modifications: idT-G(M)A(M)U(F)G(M)A(M)U(F)C(F)G(M)G(M)A(M)C(F)A(M)U(F)AAC(F)A(M)TTG(M)U(F)U(F)G(M)GsG(M)G(M)TG(M)TCA(M)A(M)-idT (F=2'-F, M=2'-OMe, s=PS)
B6: SEQ ID NO: 17(8) (mixed)
RNA: B1 RNA
modifications: idT-G(M)A(M)U(F)G(M)A(M)U(F)C(F)G(M)G(M)A(M)C(F)A(M)U(M)AAC(F)A(M)TTG(M)U(F)U(F)G(M)GG(M)G(M)TG(M)TCA(M)A(M)-idT (F=2'-F, M=2'-OMe)
B7: SEQ ID NO: 17(19) (mixed)
RNA: B1 RNA
modifications: idT-G(M)A(M)U(F)G(M)A(M)U(F)C(F)G(M)G(M)A(M)C(F)A(M)U(F)AsAC(F)A(M)TTG(M)U(F)U(F)G(M)GG(M)G(M)TG(M)TCA(M)A(M)-idT (F=2'-F, M=2'-OMe, s=PS)
B8: SEQ ID NO: 17(15) (mixed)
RNA: B1 RNA
modifications: idT-G(M)A(PHE)U(F)G(M)A(M)U(F)C(F)G(M)G(M)A(M)C(F)A(M)U(F)AAC(F)A(M)TTG(M)U(F)U(F)G(M)GG(M)G(M)TG(M)TCA(M)A(M)-idT (F=2'-F, M=2'-OMe, PHE=8-(propyl)phenyl-rA)
B9: SEQ ID NO: 17(7) (mixed)
RNA: B1 RNA
modifications: idT-G(M)A(M)TG(M)A(M)U(F)C(F)G(M)G(M)A(M)CA(M)U(F)AAC(F)A(M)TTG(M)U(F)U(F)G(M)GG(M)G(M)TG(M)TCA(M)A(M)-idT (F=2'-F, M=2'-OMe; printed LT(F) read as U(F))
B10: SEQ ID NO: 17(9) (mixed)
RNA: B1 RNA
modifications: idT-G(M)A(M)U(F)G(M)A(M)U(F)C(F)G(M)G(M)A(M)C(F)A(M)U(F)AAC(M)A(M)TTG(M)U(F)U(F)G(M)GG(M)G(M)TG(M)TCA(M)A(M)-idT (F=2'-F, M=2'-OMe)
B11: SEQ ID NO: 17(12) (mixed)
RNA: B1 RNA
modifications: X-S-G(M)A(M)U(F)G(M)A(M)U(F)C(F)G(M)G(M)A(M)C(F)A(M)U(F)AAC(F)A(M)TTG(M)U(F)U(F)G(M)GG(M)G(M)TG(M)TCA(M)A(M)-idT (F=2'-F, M=2'-OMe; X=Phe-Cys peptide, S=thiol)
B12: SEQ ID NO: 17(2) (ssRNA)
RNA: B1 RNA
modifications: idT-G(M)A(M)U(F)G(M)A(M)U(F)C(F)G(M)G(M)A(M)C(F)A(M)U(F)AAC(F)AU(F)U(F)G(M)U(F)U(F)G(M)GG(M)G(M)U(F)G(M)U(F)C(F)A(M)A(M)-idT (F=2'-F, M=2'-OMe)
B13: SEQ ID NO: 17(10) (mixed)
RNA: B1 RNA
modifications: idT-G(M)A(M)U(F)G(M)A(M)U(F)C(F)G(M)G(M)A(M)C(F)A(M)U(F)AAC(F)A(M)TTG(M)U(M)U(F)G(M)GG(M)G(M)TG(M)TCA(M)A(M)-idT (F=2'-F, M=2'-OMe)
B14: SEQ ID NO: 17(13) (mixed)
RNA: B1 RNA
modifications: Y-S-G(M)A(M)U(F)G(M)A(M)U(F)C(F)G(M)G(M)A(M)C(F)A(M)U(F)AAC(F)A(M)TTG(M)U(F)U(F)G(M)GG(M)G(M)TG(M)TCA(M)A(M)-idT (F=2'-F, M=2'-OMe; Y=Cys-Phe peptide, S=thiol)

The target of one data set is T1, chymase (native, human skin mast cell) (Homo sapiens, UniProt P23946 P23946:22-247).
T1 sequence: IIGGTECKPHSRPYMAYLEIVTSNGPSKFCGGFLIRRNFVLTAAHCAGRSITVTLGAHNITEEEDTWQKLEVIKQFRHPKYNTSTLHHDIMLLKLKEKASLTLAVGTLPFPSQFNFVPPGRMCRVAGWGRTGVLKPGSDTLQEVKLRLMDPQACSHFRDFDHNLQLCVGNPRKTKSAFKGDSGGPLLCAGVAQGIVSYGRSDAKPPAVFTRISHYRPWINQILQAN
The data set can be described thus: inhibition; angiotensin I substrate. The following applies: tags: Calbiochem Human Skin. The procedure: (§1) The total volume of solution for an enzyme reaction in the assay was set to 50 μL, and the reaction was performed in solution C buffer. At first, native (manufactured by Calbiochem) was diluted with solution C to give 5 μL thereof. Here, the native is chymase purified from human skin mast cell. The nucleic acid was serially diluted with solution C at a concentration of 0.0027-2 μM to give 25 μL thereof. The chymase solution (5 μL) and the nucleic acid solution (25 μL) were mixed, and the mixture was incubated at 37° C. for 5 min. On the other hand, […] angiotensin I (manufactured by PEPTIDE […], INC.) was prepared in solution C to give 20 μL thereof, which was incubated at 37° C. for 5 min. The angiotensin I solution was added to a mixture of chymase and nucleic acid to start an enzyme reaction. The final chymase concentration of the reaction solution was 0.5 nM, and the final substrate concentration was 50 μM. After reaction at 37° C. for 90 min, ice-cooled 30% trichloroacetic acid solution (25 μL) was added to quench the reaction. The whole mixture was centrifuged at 4° C., 14000 rpm for 10 min, and the supernatant (30 μL) was used for the next fluorescence induction reaction.
(§2) The above-mentioned supernatant (30 μL) was added to a 96 well plate (black, manufactured by Costar), a solution (15 μL) of 2% o-phthalaldehyde (manufactured by SIGMA) in methanol and 0.3M NaOH solution (170 μL) were added to each well, and the mixture was incubated at room temperature for 10 min. Then, 3M HCl solution (25 μL) was added to quench the reaction. The plate was set on a microplate reader SpectraMax190 (manufactured by Molecular device) and the fluorescence intensity was measured at an excitation wavelength of 355 nm and a fluorescence wavelength of 460 nm.
All nucleic acids of SEQ ID NO: 17(1)-17(25) were prepared by chemical synthesis. In the evaluation of SEQ ID NO: 17(1)-17(25), a method similar to the evaluation method of inhibitory activity against chymase shown in Example 1 by using angiotensin I as a substrate was used for measurement. In the Table, the IC₅₀ value is a mean of 2 or 3 measurements.
Broadly, the IC50 is the concentration that inhibits the measured activity by half. B1 showed an IC50 of 0.14 nM.

In the case of B2, inhibition was half-maximal at 0.14 nM (IC50).

For B3, inhibition was half-maximal at 0.17 nM (IC50).

Turning to B4, inhibition was half-maximal at 0.2 nM (IC50).

For the molecule B5, the midpoint of inhibition, the IC50, lay at 0.19 nM.

For B6, the IC50 came out at 0.13 nM.

For B7, the half-inhibitory concentration (IC50) came out at 0.19 nM.

B8 yielded a half-maximal inhibitory concentration (IC50) of 0.13 nM.

The molecule B9 registered an IC50 of 0.17 nM.

For the molecule B10, the IC50 was determined as 0.16 nM.

On to B11, for which the midpoint of inhibition, the IC50, lay at 0.19 nM.

B12 yielded an IC50 of 0.21 nM.

B13 returned an IC50 of 0.13 nM.

As to B14, half-maximal inhibition (IC50) required 0.16 nM.

The target of another data set is T1, chymase (native, human skin mast cell). The experiment in a line: inhibition; angiotensin I substrate. The following applies: tags: Calbiochem Human Skin. This is another data set of the same source. As to the method:
as §1, §2
The nucleic acids of SEQ ID NO: 11-20 were all produced by chemical synthesis. In the evaluation of SEQ ID NO: 11-20, a method similar to the evaluation method of inhibitory activity against chymase shown in Example 1 by using angiotensin I as a substrate was used for measurement. […] The IC₅₀ value is a mean of 2 or 3 measurements.
GGCAGAUGAUCGGACAUAACAUUGUUGGGGUGUCAAGCC (ssRNA, 2'-F pyrimidines (U, C); purines 2'-OH) [SEQ ID NO: 14] yielded an IC50 of 6.8 nM.

For the molecule GAUGAUCGGACAUAACAUUGUUGGGGUGUCAA (ssRNA, 2'-F pyrimidines (U, C); purines 2'-OH) [SEQ ID NO: 17], the IC50 came to 1.4 nM.

Consider AUCGGACAUAACAUUGUUGGGGUGUCAA (ssRNA, 2'-F pyrimidines (U, C); purines 2'-OH) [SEQ ID NO: 19], for which the IC50 stood at 14.4 nM.

As to GAUGAUCGGACAUAACAUUGUUGGGGUGUCAAGCC (ssRNA, 2'-F pyrimidines (U, C); purines 2'-OH) [SEQ ID NO: 15], the IC50 is 1.4 nM.

Molecule GGGUCAGAUGAUCGGACAUAACAUUGUUGGGGUGUCAAGGCCC (ssRNA, 2'-F pyrimidines (U, C); purines 2'-OH) [SEQ ID NO: 11] had an IC50 of 54.7 nM.

In turn, UGAUCGGACAUAACAUUGUUGGGGUGUCAA (ssRNA, 2'-F pyrimidines (U, C); purines 2'-OH) [SEQ ID NO: 18] came in with an IC50 of 2.1 nM.

Turning to GAUGAUCGGACAUAACAUUGUUGGGGUGUCA (ssRNA, 2'-F pyrimidines (U, C); purines 2'-OH) [SEQ ID NO: 20], the IC50 worked out at 1.8 nM.

Regarding GGCAGAUGAUCGGACAUAACAUUGUUGGGGUGUCAA (ssRNA, 2'-F pyrimidines (U, C); purines 2'-OH) [SEQ ID NO: 16], the IC50 turned out to be 2 nM.
